Data published in patent publication US20080293089.

T1: S5a (substrate in the E3 ligase selectivity example), P55036
T1 chain: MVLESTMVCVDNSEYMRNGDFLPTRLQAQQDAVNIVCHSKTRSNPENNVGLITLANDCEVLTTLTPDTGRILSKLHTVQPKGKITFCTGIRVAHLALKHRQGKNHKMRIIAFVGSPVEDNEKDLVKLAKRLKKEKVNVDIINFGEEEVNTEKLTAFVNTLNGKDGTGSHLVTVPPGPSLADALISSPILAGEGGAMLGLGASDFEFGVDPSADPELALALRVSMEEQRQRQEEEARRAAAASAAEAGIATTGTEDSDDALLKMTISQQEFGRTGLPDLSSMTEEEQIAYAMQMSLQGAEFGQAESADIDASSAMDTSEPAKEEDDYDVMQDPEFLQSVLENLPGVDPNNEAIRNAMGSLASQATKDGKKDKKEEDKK


Target: T1, S5a (substrate in the E3 ligase …)

| Protein | Ubiquitinated S5a? |
| --- | --- |
| His-CHIP (protein) MKGKEEKEGGARLGAGGGSPEKSPSAQELKEQGNRLFVGRKYPEAAACYGRAITRNPLVAVYYTNRALCYLKMQQHEQALADCRRALELDGQSVKAHFFLGQCQLEMESYDEAIANLQRAYSLAKEQRLNFGDDIPSALRIAKKKRWNSIEERRIHQESELHSYLSRLIAAERERELEECQRNHEGDEDDSHVRAQQACIEAKHDKYMADMDELFSQVDEKRKKRDIPDYLCGKISFELMREPCITPSGITYDRKDIEEHLQRVGHFDPVTRSPLTQEQLIPNLAMKEVIDAFISENGWVEDY | Yes |
| GST-Nedd4 (protein) MATCAVEVFGLLEDEENSRIVRVRVIAGIGLAKKDILGASDPYVRVTLYDPMNGVLTSVQTKTIKKSLNPKWNEEILFRVHPQQHRLLFEVFDENRLTRDDFLGQVDVPLYPLPTENPRLERPYTFKDFVLHPRSHKSRVKGYLRLKMTYLPKTSGSEDDNAEQAEELEPGWVVLDQPDAACHLQQQQEPSPLPPGWEERQDILGRTYYVNHESRRTQWKRPTPQDNLTDAENGNIQLQAQRAFTTRRQISEETESVDNRESSENWEIIREDEATMYSNQAFPSPPPSSNLDVPTHLAEELNARLTIFGNSAVSQPASSSNHSSRRGSLQAYTFEEQPTLPVLLPTSSGLPPGWEEKQDERGRSYYVDHNSRTTTWTKPTVQATVETSQLTSSQSSAGPQSQASTSDSGQQVTQPSEIEQGFLPKGWEVRHAPNGRPFFIDHNTKTTTWEDPRLKIPAHLRGKTSLDTSNDLGPLPPGWEERTHTDGRIFYINHNIKRTQWEDPRLENVAITGPAVPYSRDYKRKYEFFRRKLKKQNDIPNKFEMKLRRATVLEDSYRRIMGVKRADFLKARLWIEFDGEKGLDYGGVAREWFFLISKEMFNPYYGLFEYSATDNYTLQINPNSGLCNEDHLSYFKFIGRVAGMAVYHGKLLDGFFIRPFYKMMLHKPITLHDMESVDSEYYNSLRWILENDPTELDLRFIIDEELFGQTHQHELKNGGSEIVVTNKNKKEYIYLVIQWRFVNRIQKQMAAFKEGFFELIPQDLIKIFDENELELLMCGLGDVDVNDWREHTKYKNGYSANHQVIQWFWKAVLMMDSEKRIRLLQFVTGTSRVPMNGFAELYGSNGPQSFTVEQWGTPEKLPRAHTCFNRLDLPPYESFEELWDKLQMAIENTQGFDGVD | Yes |
| GST-Murf1 (protein) MDYKSSLIQDGNPMENLEKQLICPICLEMFTKPVVILPCQHNLCRKCANDIFQAANPYWTSRGSSVSMSGGRFRCPTCRHEVIMDRHGVYGLQRNLLVENIIDIYKQECSSRPLQKGSHPMCKEHEDEKINIYCLTCEVPTCSMCKVFGIHKACEVAPLQSVFQGQKTELNNCISMLVAGNDRVQTIITQLEDSRRVTKENSHQVKEELSQKFDTLYAILDEKKSELLQRITQEQEKKLSFIEALIQQYQEQLDKSTKLVETAIQSLDEPGGATFLLTAKQLIKSIVEASKGCQLGKTEQGFENMDFFTLDLEHIADALRAIDFGTDEEEEEFIEEEDQEEEESTEGKEEGHQ | Yes |
| GST-Siah2 (protein) MSRPSSTGPSANKPCSKQPPPQPQHTPSPAAPPAAATISAAGPGSSAVPAAAAVISGPGGGGGAGPVSPQHHELTSLFECPVCFDYVLPPILQCQAGHLVCNQCRQKLSCCPTCRGALTPSIRNLAMEKVASAVLFPCKYATTGCSLTLHHTEKPEHEDICEYRPYSCPCPGASCKWQGSLEAVMSHLMHAHKSITTLQGEDIVFLATDINLPGAVDWVMMQSCFGHHFMLVLEKQEKYEGHQQFFAIVLLIGTRKQAENFAYRLELNGNRRRLTWEATPRSIHDGVAAAIMNSDCLVFDTAIAHLFADNGNLGINVTISTCCP | Yes (low) |
| GST-E6AP (protein) MEKLHQCYWKSGEPQSDDIEASRMKRAAAKHLIERYYHQLTEGCGNEACTNEFCASCPTFLRMDNNAAAIKALELYKINAKLCDPHPSKKGASSAYLENSKGAPNNSCSEIKMNKKGARIDFKDVTYLTEEKVYEILELCREREDYSPLIRVIGRVFSSAEALVQSFRKVKQHTKEELKSLQAKDEDKDEDEKEKAACSAAAMEEDSEASSSRIGDSSQGDNNLQKLGPDDVSVDIDAIRRVYTRLLSNEKIETAFLNALVYLSPNVECDLTYHNVYSRDPNYLNLFIIVMENRNLHSPEYLEMALPLFCKAMSKLPLAAQGKLIRLWSKYNADQIRRMMETFQQLITYKVISNEFNSRNLVNDDDAIVAASKCLKMVYYANVVGGEVDTNHNEEDDEEPIPESSELTLQELLGEERRNKKGPRVDPLETELGVKTLDCRKPLIPFEEFINEPLNEVLEMDKDYTFFKVETENKFSFMTCPFILNAVTKNLGLYYDNRIRMYSERRITVLYSLVQGQQLNPYLRLKVRRDHIIDDALVRLEMIAMENPADLKKQLYVEFEGEQGVDEGGVSKEFFQLVVEEIFNPDIGMFTYDESTKLFWFNPSSFETEGQFTLIGIVLGLAIYNNCILDVHFPMVVYRKLMGKKGTFRDLGDSHPVLYQSLKDLLEYEGNVEDDMMITFQISQTDLFGNPMMYDLKENGDKIPITNENRKEFVNLYSDYILNKSVEKQFKAFRRGFHMVTNESPLKYLFRPEEIELLICGSRNLDFQALEETTEYDGGYTRDSVLIREFWEIVHSFTDEQKRLFLQFTTGTDRAPVGGLGKLKMIIAKNGPDTERLPTSHTCFNVLLLPEYSSKEKLKERLLKAITYAKGFGML | Yes |
